# Results as given in publication PMC3448598, “A Role for the CAL1-Partner Modulo in Centromere Integrity and Accurate Chromosome Segregation in Drosophila” (PLoS ONE, 2012).
# T1: FLAG-CAL1 (Drosophila, UniProt Q9VEN2 1-979)
# T1 construct: Chromosome Alignment 1 (CAL1), Drosophila; The results say the fusion is expressed under the endogenous CAL1 promoter, the methods say under the pCopia promoter; also called FLAG-tagged CAL1; Chromosome Alignment 1; source: Drosophila S2 cells stably expressing FLAG-CAL1, in chromatin-free extract / nuclear (chromatin) extract; not shown: FLAG, N-terminal, kept
# T1 sequence (looked up): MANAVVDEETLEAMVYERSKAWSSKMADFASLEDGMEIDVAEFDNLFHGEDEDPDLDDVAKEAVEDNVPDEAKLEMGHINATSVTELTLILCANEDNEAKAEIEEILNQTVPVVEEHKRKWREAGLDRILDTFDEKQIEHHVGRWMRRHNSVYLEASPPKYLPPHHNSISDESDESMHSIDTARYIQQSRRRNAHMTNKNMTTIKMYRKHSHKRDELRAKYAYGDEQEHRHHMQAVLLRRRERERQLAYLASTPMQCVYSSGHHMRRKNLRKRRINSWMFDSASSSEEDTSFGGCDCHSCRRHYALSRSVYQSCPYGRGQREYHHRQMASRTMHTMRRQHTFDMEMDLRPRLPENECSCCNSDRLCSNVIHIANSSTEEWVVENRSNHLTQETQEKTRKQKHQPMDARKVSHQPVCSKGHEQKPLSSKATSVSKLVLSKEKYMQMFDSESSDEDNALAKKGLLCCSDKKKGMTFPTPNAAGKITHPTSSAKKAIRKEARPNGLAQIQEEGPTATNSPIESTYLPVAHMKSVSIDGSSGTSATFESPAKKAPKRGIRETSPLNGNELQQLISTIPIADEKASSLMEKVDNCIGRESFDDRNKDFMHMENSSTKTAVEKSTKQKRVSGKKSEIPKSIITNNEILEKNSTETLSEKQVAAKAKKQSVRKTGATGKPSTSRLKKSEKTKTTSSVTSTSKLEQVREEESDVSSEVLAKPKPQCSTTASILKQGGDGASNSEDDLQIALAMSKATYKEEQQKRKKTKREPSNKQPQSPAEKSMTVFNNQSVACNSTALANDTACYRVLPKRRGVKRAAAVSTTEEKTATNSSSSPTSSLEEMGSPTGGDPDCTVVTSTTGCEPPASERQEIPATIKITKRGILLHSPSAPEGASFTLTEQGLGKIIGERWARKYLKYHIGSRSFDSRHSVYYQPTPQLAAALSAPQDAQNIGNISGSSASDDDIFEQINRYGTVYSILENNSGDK
# B1: CAL1 (natural protein, Drosophila (endogenous in S2 cells), UniProt Q9VEN2 1-979, looked up)
# chain: T1 sequence (looked up)
# notes: Chromosome Alignment 1 (CAL1), Drosophila, endogenous in untransfected S2 cells; runs approximately as a 150 KDa protein; also called Chromosome Alignment 1; source: endogenous, Drosophila S2 cells, in nuclear (chromatin) extract
# B2: Modulo (natural protein, Drosophila (endogenous in S2 cells), UniProt P13469 1-542, looked up)
# chain: MAQKKAVTVKGKKATNGEEKPLAKRVTKSTKVQEEETVVPQSPSKKSRKQPVKEVPQFSEEDESDVEEQNDEQPGDDSDFETEEAAGLIDDEAEEDEEYNSDDEEDDDDDELEPGEVSKSEGADEVDESDDDEEAPVEKPVSKKSEKANSEKSEENRGIPKVKVGKIPLGTPKNQIVFVTNLPNEYLHKDLVALFAKFGRLSALQRFTNLNGNKSVLIAFDTSTGAEAVLQAKPKALTLGDNVLSVSQPRNKEENNERTVVVGLIGPNITKDDLKTFFEKVAPVEAVTISSNRLMPRAFVRLASVDDIPKALKLHSTELFSRFITVRRISQESISRTSELTLVVENVGKHESYSSDALEKIFKKFGDVEEIDVVCSKAVLAFVTFKQSDAATKALAQLDGKTVNKFEWKLHRFERSTSGRAILVTNLTSDATEADLRKVFNDSGEIESIIMLGQKAVVKFKDDEGFCKSFLANESIVNNAPIFIEPNSLLKHRLLKKRLAIGQTRAPRKFQKDTKPNFGKKPFNKRPAQENGGKSFVKRARF
# notes: Modulo, Drosophila nucleolar protein, endogenous in S2 cells; runs as a 75 KDa protein; also called nucleolar protein Modulo; Drosophila nucleolin homolog; source: endogenous, Drosophila S2 cells, in chromatin-free extract / nuclear (chromatin) extract
# Key:
# [1] = target: B2; experiment: co-IP; anti-Modulo antibody coupled to Dynabead Protein-A, 2 h at 4°C, extracts of nuclei from S2 cells; mock IP without antibody; Western blot with anti-CAL1; conditions: partners not purified
# [2] = target: T1, FLAG-CAL1; experiment: co-IP; anti-FLAG M2 agarose, 2 h at 4°C, extracts of nuclei from S2 cells stably expressing FLAG-CAL1 and from untagged S2 cells; Western blot with anti-Modulo; quantified with Image J; conditions: partners not purified
fold enrichment in the anti-Modulo IP over the mock IP [1],fold enrichment in the FLAG-CAL1 IP over the IP from untagged S2 cells [2],Binder
8 fold,,B1
,5 fold,B2
